Data reported in patent US20190359687A1 (Bayer, published 2019).

Key:
[1] = biological target: T1, Rhesus monkey glycophorin A on Rhesus monkey red blood cells (Rhesus monkey, UniProt A0A1D5Q349 20-150); assay: FACS, RBC Rh01
T1 construct: whole, on cells; also called Rhesus RBC; monkey GPA
T1 sequence: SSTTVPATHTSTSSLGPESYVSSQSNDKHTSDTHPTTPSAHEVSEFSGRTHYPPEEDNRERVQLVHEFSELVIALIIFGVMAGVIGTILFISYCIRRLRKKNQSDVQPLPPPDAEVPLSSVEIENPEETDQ
Method: (§1) The binding of the humanized variants to intact red blood cells (RBC) from humans (Hu01 to 03; 3 individuals), Rhesus monkey (Rh01 to 03; 3 individuals) and Cynomolgus monkey (Cy01 to 02; 2 individuals) was measured by fluorescence activated cell sorting (FACS).

[2] = biological target: T2, human glycophorin A in the red blood cell membrane (human, UniProt P02724 20-150); assay: FACS, RBC Hu02
T2 construct: whole, on cells; used for intact RBC, isolated RBC membranes and transfected cells; the assay field tells which; also called GPA; hGPA
T2 sequence (looked up): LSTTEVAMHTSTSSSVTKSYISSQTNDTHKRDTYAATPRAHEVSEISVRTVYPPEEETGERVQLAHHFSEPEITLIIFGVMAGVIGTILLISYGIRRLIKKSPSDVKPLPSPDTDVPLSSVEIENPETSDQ
Method: as §1

[3] = biological target: T3, Cynomolgus monkey glycophorin A on Cynomolgus monkey red blood cells (Cynomolgus monkey); assay: FACS, RBC Cy01
T3 construct: whole, on cells; also called Cyno RBC; Cyno GPA
Method: as §1

[4] = biological target: T2, human glycophorin A in the red blood …; assay: FACS, RBC Hu03
Method: as §1

[5] = biological target: T3, Cynomolgus monkey glycophorin A on …; assay: FACS, RBC Cy02
Method: as §1

[6] = biological target: T2, human glycophorin A in the red blood …; assay: FACS, RBC Hu01
Method: as §1

[7] = biological target: T1, Rhesus monkey glycophorin A on Rhesus …; assay: FACS, RBC Rh03
Method: as §1

[8] = biological target: T2, human glycophorin A in the red blood …; assay: FACS, IgG
Method: as §1

[9] = biological target: T1, Rhesus monkey glycophorin A on Rhesus …; assay: FACS, RBC Rh02
[10] = biological target: T4, Cynomolgus monkey glycophorin A on Cynomolgus monkey red blood cells (Cynomolgus monkey); assay: partition to Cyno RBC, human HemA plasma, 1 min;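 further: FVIII fusion spiked at 1 IU/mL into RBC suspension at whole-blood density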
T4 construct: whole, on cells; also called Cyno GPA; Cyno RBC

[11] = biological target: T4, Cynomolgus monkey glycophorin A on …; assay: partition to Cyno RBC, human HemA plasma, 5 min;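 further: FVIII fusion spiked at 1 IU/mL into RBC suspension at whole-blood density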
Method: (§2) To evaluate partition to cynomolgus monkey or human red blood cells, whole blood was draw from Cynomolgus monkey or normal human volunteers in to anticoagulant with 4% sodium citrate (Sigma, St Louis, Mo.). The red blood cells were purified by layering the whole blood on to ficoll followed by low speed centrifugation. The supernatant containing plasma, platelets and white blood cells was discarded and the red blood cell pellet was resuspended in 10 pellet volumes of PBS (50 mM Phosphate buffer, pH7.4, 150 mM NaCl). The red blood cells were then pelleted by slow speed centrifugation and the red blood cells re-suspended in 10 volumes of PBS. This washing step was repeated 4 more times and the red blood cells finally resuspended in a volume of plasma from Hemophilia patients with less than 1% of normal levels of FVIII (GeorgeKing Bio-Medical, Overland Park, Kans.) to generate a total volume equal to the initial blood volume such that the RBC density was equal to that of normal whole blood. BDD and RBC targeted FVIII molecules were then spiked into RBC suspension in HemA plasma at 1 IU/mL, and incubated at room temperature for 2-3 hours with gentle rotation. […] An additional control was performed in which BDD or RBC targeted FVIII molecules were added at 11U/ml into the same human hemophilia A plasma and incubated for 5 minutes and 180 mins. These samples were used to determine the input FVIII activity in the presence of plasma which was used to calculate the percentage of the molecule that was bound to RBC. All plasma samples were then assayed together for FVIII activity using the Coatest SP assay (DiaPharma, Columbus, Ohio). The assay was performed following the manufacturer's instructions in a 96-well plate format. […] The plate was incubated at 37° C. for 10 minutes with shaking between each reagent addition.

[12] = biological target: T5, human glycophorin A on human red blood cells (human, UniProt P02724 20-150); assay: partition to human RBC, vWF deficient plasma, 60 min
T5 construct: whole, on cells; also called human GPA; huGPA
T5 sequence (looked up): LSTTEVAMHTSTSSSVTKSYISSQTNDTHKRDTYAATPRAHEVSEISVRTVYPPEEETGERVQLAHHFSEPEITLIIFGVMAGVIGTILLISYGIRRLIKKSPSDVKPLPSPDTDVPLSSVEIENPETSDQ

[13] = biological target: T5, human glycophorin A on human red blood …; assay: partition to human RBC, vWF deficient plasma, 15 min
[14] = biological target: T4, Cynomolgus monkey glycophorin A on …; assay: partition to Cyno RBC, human HemA plasma, 120 min;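 further: FVIII fusion spiked at 1 IU/mL into RBC suspension at whole-blood density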
[15] = biological target: T5, human glycophorin A on human red blood …; assay: partition to human RBC, human HemA plasma, 120 min
Method: The supernatant containing plasma, platelets and white blood cells was discarded and the red blood cell pellet was resuspended in 10 pellet volumes of PBS (50 mM Phosphate buffer, pH7.4, 150 mM NaCl). The red blood cells were then pelleted by slow speed centrifugation and the red blood cells re-suspended in 10 volumes of PBS. This washing step was repeated 4 more times and the red blood cells finally resuspended in a volume of plasma from Hemophilia patients with less than 1% of normal levels of FVIII (GeorgeKing Bio-Medical, Overland Park, Kans.) to generate a total volume equal to the initial blood volume such that the RBC density was equal to that of normal whole blood. BDD and RBC targeted FVIII molecules were then spiked into RBC suspension in HemA plasma at 1 IU/mL, and incubated at room temperature for 2-3 hours with gentle rotation. […] An additional control was performed in which BDD or RBC targeted FVIII molecules were added at 11U/ml into the same human hemophilia A plasma and incubated for 5 minutes and 180 mins. These samples were used to determine the input FVIII activity in the presence of plasma which was used to calculate the percentage of the molecule that was bound to RBC. All plasma samples were then assayed together for FVIII activity using the Coatest SP assay (DiaPharma, Columbus, Ohio). The assay was performed following the manufacturer's instructions in a 96-well plate format. […] The plate was incubated at 37° C. for 10 minutes with shaking between each reagent addition. […] The amount of FVIII activity in the plasma reflects the amount of unbound FVIII. The FVIII activity of the same molecule spiked in to Hemophilia A plasma alone (no RBC) and incubated for 5 minutes was normalized to 100%.

[16] = biological target: T4, Cynomolgus monkey glycophorin A on …; assay: partition to Cyno RBC, human HemA plasma, 60 min;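 further: FVIII fusion spiked at 1 IU/mL into RBC suspension at whole-blood density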
[17] = biological target: T6, glycophorin A peptide GP5 (human, biotin at the N-terminus); assay: Octet, GP5 peptide on the probe, fusion protein in solution, 1:1 fit
T6 construct: Residues 42 to 61 of the human glycophorin A extracellular domain
T6 peptide: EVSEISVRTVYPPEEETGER

[18] = biological target: T5, human glycophorin A on human red blood …; assay: partition to human RBC, vWF deficient plasma, 1 min
[19] = biological target: T5, human glycophorin A on human red blood …; assay: partition to human RBC, vWF deficient plasma, 5 min
[20] = biological target: T4, Cynomolgus monkey glycophorin A on …; assay: partition to Cyno RBC, human HemA plasma, 30 min;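 further: FVIII fusion spiked at 1 IU/mL into RBC suspension at whole-blood density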
[21] = biological target: T4, Cynomolgus monkey glycophorin A on …; assay: partition to Cyno RBC, human HemA plasma, 15 min;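 further: FVIII fusion spiked at 1 IU/mL into RBC suspension at whole-blood density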
Method: as §2

[22] = biological target: T5, human glycophorin A on human red blood …; assay: partition to human RBC, vWF deficient plasma, 120 min
[23] = biological target: T5, human glycophorin A on human red blood …; assay: partition to human RBC, vWF deficient plasma, 30 min

B1: Hu6C12-1 (antibody, V domains shown)
VH: EVQLVQSGAEVKKPGASVKVSCKASGYTFTTYTIHWVRQAPGQGLEWMGYINPSSDYTRYNPKFKDRVTMTTDTSTSTAYMELRSLRSDDTAVYYCQRGTRDYWGQGTTVTVSS
VL: DIQLTQSPSFLSASVGDRVTITCSAASSVSYIYWYQQKPGKAPKLLIYSTSTLPSGVPSRFSGSGSGTEFTLTISSLQPEDFATYYCHQRNSFPFTFGQGTKLEIK
notes: IgG format; VH.1a + Vk.1
- fluorescence intensity [1]: 1190
- fluorescence intensity [2]: 3
- fluorescence intensity [3]: 742
- fluorescence intensity [4]: 2
- fluorescence intensity [5]: 801
- fluorescence intensity [6]: 3
- fluorescence intensity [7]: 1140
- binding result [8]: no binding
- fluorescence intensity [9]: 1120

B2: Hu6C12-13 (antibody, V domains shown)
VH: EVQLVQSGAEVKKPGASVKVSCKASGYTFTTYTIHWVRQAPGQGLEWMGYINPSSDYTRYNPKFKDRVTLTTDTSTSTAYMELRSLRSDDTAVYYCQRGTRDYWGQGTTVTVSS
VL: DIQLTQSPSFLSASVGDRVTITCSAASSVSYIYWYQQKPGKAPKLLIYSTSTLPSGVPSRFSGSGSGTEYTLTISSLQPEDFATYYCHQRNSFPFTFGQGTKLEIK
notes: IgG format; VH.1d + Vk.1a
- fluorescence intensity [1]: 1370
- fluorescence intensity [2]: 3
- fluorescence intensity [3]: 824
- fluorescence intensity [4]: 2
- fluorescence intensity [5]: 937
- fluorescence intensity [6]: 3
- fluorescence intensity [7]: 1270
- binding result [8]: no binding
- fluorescence intensity [9]: 1280

B3: Hu6C12-9 (antibody, V domains shown)
VH: EVQLVQSGAEVKKPGASVKVSCKASGYTFTTYTIHWVRQAPGQGLEWMGYINPSSDYTRYNPKFKDRVTMTTDTSTSTAYMELRSLRSDDTAVYYCARGTRDYWGQGTTVTVSS
VL: DIQLTQSPSFLSASVGDRVTITCSAASSVSYIYWYQQKPGKAPKLLIYSTSTLPSGVPSRFSGSGSGTEYTLTISSLQPEDFATYYCHQRNSFPFTFGQGTKLEIK
notes: IgG format; VH.1 + Vk.1a
- fluorescence intensity [1]: 1060
- fluorescence intensity [2]: 3
- fluorescence intensity [3]: 680
- fluorescence intensity [4]: 2
- fluorescence intensity [5]: 756
- fluorescence intensity [6]: 3
- fluorescence intensity [7]: 1050
- binding result [8]: no binding
- fluorescence intensity [9]: 1060

B4: Hu6C12-10 (antibody, V domains shown)
VH: EVQLVQSGAEVKKPGASVKVSCKASGYTFTTYTIHWVRQAPGQGLEWMGYINPSSDYTRYNPKFKDRVTMTTDTSTSTAYMELRSLRSDDTAVYYCQRGTRDYWGQGTTVTVSS
VL: DIQLTQSPSFLSASVGDRVTITCSAASSVSYIYWYQQKPGKAPKLLIYSTSTLPSGVPSRFSGSGSGTEYTLTISSLQPEDFATYYCHQRNSFPFTFGQGTKLEIK
notes: IgG format; VH.1a + Vk.1a
- fluorescence intensity [1]: 1410
- fluorescence intensity [2]: 3
- fluorescence intensity [3]: 872
- fluorescence intensity [4]: 2
- fluorescence intensity [5]: 973
- fluorescence intensity [6]: 3
- fluorescence intensity [7]: 1310
- binding result [8]: no binding
- fluorescence intensity [9]: 1310

B5: Hu6C12-4 (antibody, V domains shown)
VH: EVQLVQSGAEVKKPGASVKVSCKASGYTFTTYTIHWVRQAPGQGLEWMGYINPSSDYTRYNPKFKDRVTLTTDTSTSTAYMELRSLRSDDTAVYYCQRGTRDYWGQGTTVTVSS
VL: DIQLTQSPSFLSASVGDRVTITCSAASSVSYIYWYQQKPGKAPKLLIYSTSTLPSGVPSRFSGSGSGTEFTLTISSLQPEDFATYYCHQRNSFPFTFGQGTKLEIK
notes: IgG format; VH.1d + Vk.1
- fluorescence intensity [1]: 1070
- fluorescence intensity [2]: 3
- fluorescence intensity [3]: 884
- fluorescence intensity [4]: 2
- fluorescence intensity [5]: 989
- fluorescence intensity [6]: 3
- fluorescence intensity [7]: 1340
- binding result [8]: no binding
- fluorescence intensity [9]: 1320

B6: TPP-8743 FVIII-scFv fusion protein (other)
chain: ATRRYYLGAVELSWDYMQSDLGELPVDARFPPRVPKSFPFNTSVVYKKTLFVEFTDHLFNIAKPRPPWMGLLGPTIQAEVYDTVVITLKNMASHPVSLHAVGVSYWKASEGAEYDDQTSQREKEDDKVFPGGSHTYVWQVLKENGPMASDPLCLTYSYLSHVDLVKDLNSGLIGALLVCREGSLAKEKTQTLHKFILLFAVFDEGKSWHSETKNSLMQDRDAASARAWPKMHTVNGYVNRSLPGLIGCHRKSVYWHVIGMGTTPEVHSIFLEGHTFLVRNHRQASLEISPITFLTAQTLLMDLGQFLLFCHISSHQHDGMEAYVKVDSCPEEPQLRMKNNEEAEDYDDDLTDSEMDVVRFDDDNSPSFIQIRSVAKKHPKTWVHYIAAEEEDWDYAPLVLAPDDRSYKSQYLNNGPQRIGRKYKKVRFMAYTDETFKTREAIQHESGILGPLLYGEVGDTLLIIFKNQASRPYNIYPHGITDVRPLYSRRLPKGVKHLKDFPILPGEIFKYKWTVTVEDGPTKSDPRCLTRYYSSFVNMERDLASGLIGPLLICYKESVDQRGNQIMSDKRNVILFSVFDENRSWYLTENIQRFLPNPAGVQLEDPEFQASNIMHSINGYVFDSLQLSVCLHEVAYWYILSIGAQTDFLSVFFSGYTFKHKMVYEDTLTLFPFSGETVFMSMENPGLWILGCHNSDFRNRGMTALLKVSSCDKNTGDYYEDSYEDISAYLLSKNNAIEPRSFSQNGGGGSTGGTGGSSGGGTGSGGGGTGGSGGTDIQLTQSPSFLSASVGDRVTITCRASSSVRYIYWFQQKPGKAPKLLIYATSFRQSGVPSRFSGSGSGTEYTLTISSLQPEDFATYYCHQRNSFPYTFGQGTKLEIKGGGGSGGGGSGGGGSGGGGSEVQLVQSGAEVKKPGASVKVSCKASGYTFTTYAIHWVRQAPGQGLEWMGYINPSSGYTRYNPKFKGRVTMTRDKSTSTAYMELRSLRSDDTAVYYCWTGTRDYWGQGTTVTVSSGGGGSQNPPVLKRHQREITDENQSPRSFQKKTRHYFIAAVERLWDYGMSSSPHVLRNRAQSGSVPQFKKVVFQEFTDGSFTQPLYRGELNEHLGLLGPYIRAEVEDNIMVTFRNQASRPYSFYSSLISYEEDQRQGAEPRKNFVKPNETKTYFWKVQHHMAPTKDEFDCKAWAYFSDVDLEKDVHSGLIGPLLVCHTNTLNPAHGRQVTVQEFALFFTIFDETKSWYFTENMERNCRAPCNIQMEDPTFKENYRFHAINGYIMDTLPGLVMAQDQRIRWYLLSMGSNENIHSIHFSGHVFTVRKKEEYKMALYNLYPGVFETVEMLPSKAGIWRVECLIGEHLHAGMSTLFLVYSNKCQTPLGMASGHIRDFQITASGQYGQWAPKLARLHYSGSINAWSTKEPFSWIKVDLLAPMIIHGIKTQGARQKFSSLYISQFIIMYSLDGKKWQTYRGNSTGTLMVFFGNVDSSGIKHNIFNPPIIARYIRLHPTHYSIRSTLRMELMGCDLNSCSMPLGMESKAISDAQITASSYFTNMFATWSPSKARLHLQGRSNAWRPQVNNPKEWLQVDFQKTMKVTGVTTQGVKSLLTSMYVKEFLISSSQDGHQWTLFFQNGKVKVFQGNQDSFTPVVNSLDPPLLTRYLRIHPQSWVHQIALRMEVLGCEAQDLY
notes: The entry is the mature protein without signal peptide; most of the material is cut at the furin site into two chains; also called PPB 6723
- % bound to Cyno RBC [10]: 17.4%
- % bound to Cyno RBC [11]: 53%
- percentage bound to human RBC [12]: 78.8%
- percentage bound to human RBC [13]: 78%
- % bound to Cyno RBC [14]: 79%
- percentage bound to human RBC [15]: 76.4%
- % bound to Cyno RBC [16]: 78.5%
- Kd [17]: 4.89 nM
- koff [17]: 0.0027 s⁻¹
- kon [17]: 525000 M⁻¹ s⁻¹
- percentage bound to human RBC [18]: 45.9%
- percentage bound to human RBC [19]: 69.5%
- % bound to Cyno RBC [20]: 73%
- % bound to Cyno RBC [21]: 65.7%
- percentage bound to human RBC [22]: 79.6%
- percentage bound to human RBC [23]: 79.4%
